{"source": "paper PMC6480404", "binders": {"B1": {"name": "sgRNA (structured_RNA)", "RNA": "GGCGCAUAAAGAUGAGACGCGUUUUAGAGCUAUGCUGUUUUGAAAAAAACAGCAUAGCAAGUUAAAAUAAGGCUAGUCCGUUAUCAACUUGAAAAAGUGGCACCGAGUCGGUGCUU"}}, "key": {"[1]": {"molecular_target": "SpyCas9;AcrIIA2b (AcrIIA2b.3) (Streptococcus pyogenes;Listeria phage?, UniProt Q99ZW2;PDB:6MCC_3 1-1368;1-130, |)", "experiment": "cryo-EM"}, "[2]": {"molecular_target": "SpyCas9;AcrIIA2 (AcrIIA2a.1) (Streptococcus pyogenes;Listeria …, UniProt Q99ZW2;PDB:6MCB_3 1-1368;1-123, |)", "experiment": "cryo-EM"}, "[3]": {"molecular_target": "T1, AcrIIA2 (AcrIIA2a.1) (Listeria monocytogenes phage/prophage, UniProt PDB:6MCB_3 1-123)", "T1 sequence": "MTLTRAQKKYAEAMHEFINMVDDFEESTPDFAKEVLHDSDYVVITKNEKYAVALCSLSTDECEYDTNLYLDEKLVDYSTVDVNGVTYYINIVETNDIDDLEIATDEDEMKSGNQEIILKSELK", "experiment": "size-exclusion chromatography"}}}
{"binder": "B1", "values": [{"measurement": "binding result", "setting": "[1]", "value": "binds"}, {"measurement": "binding result", "setting": "[2]", "value": "binds"}, {"measurement": "binding result", "setting": "[3]", "value": "no binding"}]}
